Experimental findings from patent publication US10647739B2, “Flavonoids O-A-glucosylated on the B cycle, method for the production thereof and uses” (Institut National de la Recherche Agronomique, priority 2014, dated 2020) are described below.

Residue numbers refer to the chain shown, from its start. Numbers in names are those of the source. Where “and” joins values, the source holds several entries; their conditions need not be identical. Equal values may be shown once.

The nature of test [1]: naringenin glucosylation acceptor reaction with recombinant glucansucrases (microplate screening). To be noted: sucrose 146 mM, naringenin 5 mM, 3% DMSO, 30° C., 24 h, HPLC-UV 340 nm peak areas. It is filed as biochemical. The method, then:
(§1) The enzymatic extracts obtained are used to carry out the flavonoid glucosylation enzymatic screening reactions. The enzymatic activity of each centrifuged cell lysate is evaluated in the microplate format, by final weight after 30 minutes incubation in the presence of a final concentration of 146 mM of sucrose, by assaying the reducing sugars with 3,5-dinitrosalicylic acid (DNS). Finally, after dilution in ultrapure water, the absorbance is read at 540 nm.
(§2) The flavonoid acceptor reactions are then carried out in deep-well microplates, in a volume of 300 μl, at final concentrations of sucrose of 146 mM and of flavonoid of 2.5 mM (apigenin) or 5 mM (naringenin) (initially dissolved in 100% DMSO), and 140 μl of centrifuged cell lysate.
(§3) The final DMSO concentration in the reaction medium is 3% (v/v).
(§4) The incubation is carried out at 30° C. and at 700 rpm. After 24 hours, the enzymes are denatured at 95° C. for 15 minutes. These microplates are stored at −80° C. with a view to rapid evaluation of the flavonoid glucosylation by liquid-phase chromatography coupled to mass spectrometry (HPLC-MS or LC-MS).
(§5) With a view to their analyses by HPLC-MS, the extensively homogenized reaction media are diluted to 1/30th in DMSO. The separation of the flavonoids and of their glucosylated forms is carried out in reverse phase with a ProntoSlL Eurobond® 53×3.0 mm 120-3-C18-AQ column (porosity of 120 Å, particle size of 3 μm, C18 grafting, Bischoff Chromatography, Germany).
(§6) The flavonoid glucosylation efficiency was determined from the following formula: Glucosylation efficiency=(Σ(area of the peak of glucosylated flavonoid(s)))/(Σ(area of the peak of glucosylated flavonoid(s))+area of the peak of residual aglycone flavonoid)×100
The flavonoid glucosylation efficiency was determined from the formula set out in example 2. The flavonoid glucosylation efficiencies, expressed as a percentage, were calculated from the areas of the peaks of the various products analyzed, as described in example 1, by HPLC with a UV detector (λ340 nm), after 24 h of reaction.

Test [2] in a line: apigenin glucosylation acceptor reaction with recombinant glucansucrases (microplate screening). Conditions: sucrose 146 mM, apigenin 2.5 mM, 3% DMSO, 30° C., 24 h, HPLC-UV 340 nm peak areas. It is filed as biochemical. The procedure:
as §1, §2, §3, §4, §5, §6
The flavonoid glucosylation efficiencies, expressed as a percentage, were calculated from the areas of the peaks of the various products analyzed, as described in example 1, by HPLC with a UV detector (340 nm) after 24 h of reaction.

Turning to “α-1,2 BrS: wild-type glucansucrase α-1,2 BrS, SEQ ID NO: 11”, the naringenin glucosylation efficiency in test [1] was 26.8%. The apigenin glucosylation efficiency in test [2] is 2.5%.

B1: DSR-S vardelΔ4N S512C: mutant of truncated DSR-S, SEQ ID NO: 10 (protein)
chain: TQQVSGKYVEKDGSWYYYFDDGKNAKGLSTIDNNIQYFYESGKQAKGQYVTIDNQTYYFDKGSGDELTGLQSIDGNIVAFNDEGQQIFNQYYQSENGTTYYFDDKGHAATGIKNIEGKNYYFDNLGQLKKGFSGVIDGQIMTFDQETGQEVSNTTSEIKEGLTTQNTDYSEHNAAHGTDAEDFENIDGYLTASSWYRPTGILRNGTDWEPSTDTDFRPILSVWWPDKNTQVNYLNYMADLGFISNADSFETGDSQSLLNEASNYVQKSIEMKISAQQSTEWLKDAMAAFIVAQPQWNETSEDMSNDHLQNGALTYVNSPLTPDANSNFRLLNRTPTNQTGEQAYNLDNSKGGFELLLANQEDNSNVVVEAEQLNWLYYLMNFGTITANDADANFDGIRVDAVDNVDADLLQIAADYFKLAYGVDQNDATANQHLSILEDWSHNDPLYVTDQGSNQLTMDDYVHTQLIWSLTKSSDIRGTMQRFVDYYMVDRSNDSTENEAIPNYSFVRAHDCEVQTVIAQIVSDLYPDVENSLAPTTEQLAAAFKVYNEDEKLADKKYTQYNMASAYAMLLTNKDTVPRVYYGDLYTDDGQYMATKSPYYDAINTLLKARVQYVAGGQSMSVDSNDVLTSVRYGKDAMTASDTGTSETRTEGIGVIVSNNAELQLEDGHTVTLHMGAAHKNQAYRALLSTTADGLAYYDTDENAPVAYTDANGDLIFTNESIYGVQNPQVSGYLAVWVPVGAQQDQDARTASDTTTNTSDKVFHSNAALDSQVIYEGFSNFQAFATDSSEYTNVVIAQNADQFKQWGVTSFQLAPQYRSSTDTSFLDSIIQNGYAFTDRYDLGYGTPTKYGTADQLRDAIKALHASGIQAIADWVPDQIYNLPEQELATVTRTNSFGDDDTDSDIDNALYVVQSRGGGQYQEMYGGAFLEELQALYPSLFKVNQISTGVPIDGSVKITEWAAKYFNGSNIQGKGAGYVLKDMGSNKYFKVVSNTEDGDYLPKQLTNDLSETGFTHDDKGIIYYTLSGYRAQNAFIQDDDNNYYYFDKTGHLVTGLQKINNHTYFFLPNGIELVKSFLQNEDGTIVYFDKKGHQVFDQYITDQNGNAYYFDDAGVMLKSGLATIDGHQQYFDQNGVQVKDKFVIGTDGYKYYFEPGSGNLAILRYVQNSKNQWFYFDGNGHAVTGFQTINGKKQYFYNDGHQSKGEFIDADGDTFYTSATDGRLVTGVQKINGITYAFDNTGNLITNQYYQLADGKYMLLDDSGRAKTGFVLQDGVLRYFDQNGEQVKDAIIVDPDTNLS
modifications: Leuconostoc mesenteroides
In the case of B1, the naringenin glucosylation efficiency in test [1] is reported as 0.0%. In addition, the apigenin glucosylation efficiency in test [2] and in test [2] (listed as S512C) was 13.9% throughout.

B2: ASNp WT: wild-type recombinant amylosucrase from Neisseria polysaccharea (protein, UniProt Q9ZEU2 1-636, looked up)
Amylosucrase: MLTPTQQVGLILQYLKTRILDIYTPEQRAGIEKSEDWRQFSRRMDTHFPKLMNELDSVYGNNEALLPMLEMLLAQAWQSYSQRNSSLKDIDIARENNPDWILSNKQVGGVCYVDLFAGDLKGLKDKIPYFQELGLTYLHLMPLFKCPEGKSDGGYAVSSYRDVNPALGTIGDLREVIAALHEAGISAVVDFIFNHTSNEHEWAQRCAAGDPLFDNFYYIFPDRRMPDQYDRTLREIFPDQHPGGFSQLEDGRWVWTTFNSFQWDLNYSNPWVFRAMAGEMLFLANLGVDILRMDAVAFIWKQMGTSCENLPQAHALIRAFNAVMRIAAPAVFFKSEAIVHPDQVVQYIGQDECQIGYNPLQMALLWNTLATREVNLLHQALTYRHNLPEHTAWVNYVRSHDDIGWTFADEDAAYLGISGYDHRQFLNRFFVNRFDGSFARGVPFQYNPSTGDCRVSGTAAALVGLAQDDPHAVDRIKLLYSIALSTGGLPLIYLGDEVGTLNDDDWSQDSNKSDDSRWAHRPRYNEALYAQRNDPSTAAGQIYQGLRHMIAVRQSNPRFDGGRLVTFNTNNKHIIGYIRNNALLAFGNFSEYPQTVTAHTLQAMPFKAHDLIGGKTVSLNQDLTLQPYQVMWLEIA
For the molecule B2, the naringenin glucosylation efficiency in test [1] is 4.7±1.7% and 4.7%; in test [1] (listed as A289A), 3.4%; in test [1] (listed as D394D), 0.0%; in test [1] (listed as F229F), 0.0%; in test [1] (listed as F290F), 0.0%; in test [1] (listed as I228I) it was 0.0%. In addition, the naringenin glucosylation efficiency in test [1] (listed as I330I) amounted to 0.0%; in test [1] (listed as R226R) it was 2.5%; in test [1] (listed as R446R) it was 6.0%; in test [1] (listed as V331V), 4.7%. For the same molecule, the apigenin glucosylation efficiency in test [2] was 0.5±0.5% and 0.5%; in test [2] (listed as A289A), 0.6%; in test [2] (listed as D394D), 0.1%; in test [2] (listed as F229F), 0.8%; in test [2] (listed as F290F) it was 0.8%; in test [2] (listed as I228I), 0.8%. For the same molecule, the apigenin glucosylation efficiency is 0.8% in test [2] (listed as I330I), 0.3% in test [2] (listed as R226R) and 0.2% in test [2] (listed as V331V).

B3: V331A: ASNp amylosucrase single mutant (protein, UniProt Q9ZEU2 1-636, looked up, variant V331A)
Amylosucrase: B2 Amylosucrase with V331A
For the molecule B3, the naringenin glucosylation efficiency in test [1] was found to be 0.0%. The apigenin glucosylation efficiency in test [2] stood at 0.5%.

B4: V331L: ASNp amylosucrase single mutant (protein, UniProt Q9ZEU2 1-636, looked up, variant V331L)
Amylosucrase: B2 Amylosucrase with V331L
With B4, in test [1], the naringenin glucosylation efficiency was determined as 0.0%. For the same molecule, the apigenin glucosylation efficiency in test [2] amounted to 0.3%.

B5: V331M: ASNp amylosucrase single mutant (protein, UniProt Q9ZEU2 1-636, looked up, variant V331M)
Amylosucrase: B2 Amylosucrase with V331M
Regarding B5, the naringenin glucosylation efficiency in test [1] was found to be 0.0%. In test [2], the apigenin glucosylation efficiency was determined as 0.1%.
